# Biological target: Mycobacterium tuberculosis type-I fatty acid synthase (FAS-I) (Mycobacterium tuberculosis)
# Assay: […] (100 mM potassium phosphate pH 7.2, 150 mM KCl, 1 mM TCEP, 1 mM EDTA) […]
substance,measurement,value
Mycobacterium tuberculosis type-I fatty acid synthase (FAS-I) (enzyme),stoichiometry N,6

# From PMC6155276
